This is an account of results in patent publication US12098206B2, “PDGF receptor antibody and use thereof” (Seoul National University R&DB Foundation, priority 2018, dated 2024).

One experiment addresses T1, mPDGFR-β (Mus musculus, UniProt P05622).
T1 construct: mPDGFR-β
T1 sequence (P05622 32-530): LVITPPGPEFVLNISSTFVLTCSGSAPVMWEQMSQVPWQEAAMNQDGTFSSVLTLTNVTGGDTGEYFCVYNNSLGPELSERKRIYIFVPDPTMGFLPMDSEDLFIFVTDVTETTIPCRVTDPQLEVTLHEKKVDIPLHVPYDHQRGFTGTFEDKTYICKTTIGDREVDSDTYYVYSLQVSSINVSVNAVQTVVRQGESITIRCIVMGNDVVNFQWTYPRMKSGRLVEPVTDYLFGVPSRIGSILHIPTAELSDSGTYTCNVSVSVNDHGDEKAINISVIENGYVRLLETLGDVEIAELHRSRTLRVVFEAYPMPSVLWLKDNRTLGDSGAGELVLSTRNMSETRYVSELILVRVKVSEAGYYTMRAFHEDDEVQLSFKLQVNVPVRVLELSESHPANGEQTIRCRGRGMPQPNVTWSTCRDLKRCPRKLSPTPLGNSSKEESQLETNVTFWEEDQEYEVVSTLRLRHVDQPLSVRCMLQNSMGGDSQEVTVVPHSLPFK
Briefly: Competition enzyme immunoassay with mPDGF-BB. It counts as binding. To be noted: mPDGF-BB 100 nM; FIG. 4a. As to the method:
In order to confirm the competition between the bispecific antibody according to the present invention and mPDGF-BB, the microtiter plate was coated with mPDGFR-β-Fc chimera as mentioned above and then blocked. The microtiter plate was treated with various concentrations of the bispecific antibody (0.06 nM-1 μM) with or without addition of mPDGF-BB (100 nM), and then incubated at 37° C. for 2 hours. The washing, incubation, and detection were performed in the same manner as the enzyme immunoassay described above.
A competition enzyme immunoassay was developed to examine the effect of mPDGF-BB on the binding ability of anti-mPDGFR-β x cotinine scFv-Cκ-scFv fusion protein. The serially diluted bispecific antibodies (anti-mPDGFR-β scFv-Cκ-cotinine scFv) were incubated on wells coated with mPDGFR-β-Fc chimeric fusion protein with or without mPDGF-BB. HRP-anti-human Cκ antibody was incubated and then TMB was added. […] However, the binding ability of PRb-CN01 was not inhibited, so it confirmed that PRb-CN01 binds to mPDGFR-β in a noncompetitive manner to mPDGF-BB.

Another experiment has as its system NIH3T3 cells. Briefly: Internalization analysis by confocal microscopy in NIH3T3 cells. It counts as cell-based, mouse. To be noted: 10 μg/mL, 37° C., 30 minutes, FIG. 4c. As to the method: The bispecific antibody of scFv-Cκ-scFv fusion protein was analyzed with a confocal microscope for visualizing internalization. NIH3T3 cells were treated with the bispecific antibody of scFv-Cκ-scFv (10 μg/mL) diluted in DMEM containing 10% FBS, and internalized at 37° C. for 30 minutes. After washing the cells 3 times with cold PBS, acidic buffer (0.2 M acetic acid, 0.5 M sodium chloride) was treated at room temperature for 5 minutes to remove the antibody bound to the cell surface. Cells were washed twice with cold PBS, fixed with 4% paraformaldehyde for 10 minutes, and then subjected to immunofluorescence staining as previously described [J. M. Lim et al., J. Cell. Biol. 210 (2015) 23].
Briefly, to block antibodies having non-specific reaction, cells were incubated in PBS containing 5% horse serum and 0.1% Triton X-100 for 30 minutes, and 2 μg/mL FITC-anti human Cκ antibody (TB28-2, BD Biosciences) was added at room temperature for 30 minutes. To image the initial endosomes, the cells were washed 3 times with PBS, incubated with PBS containing 5% horse serum and 0.1% Triton X-100 for 30 minutes, and then incubated with ati-RabS antibody diluted to 1:200 (C8B1, Cell Signaling Technology, Danvers, MA, USA). Alexa Fluor 546 goat anti-rabbit IgG (A-11035, Invitrogen) was sequentially treated. Cells were treated with 0.2 μg/mL DAPI to detect DNA. Confocal microscopy images were obtained using a Zeiss LSM 880 microscope, and images were analyzed with Zen software (Carl Zeiss, Thornwood, NY, USA).
To measure the cellular internalization of the bispecific antibody of scFv-Cκ-scFv, anti-mPDGFR-β x cotinine scFv-Cκ-scFv fusion protein was incubated in NIH3T3 cells, and then treated with FITC-anti-human Cκ antibody and endosome-specific antibody. It was imaged using a confocal microscope. […] When the images were merged, the present inventors confirmed that the fluorescence of the three antibody clones and the endosome-specific antibody were co-localized.

The next experiment deals with MOLT-4 cells. The experiment in a line: Flow cytometry binding to MOLT-4 cells not expressing mPDGFR-β. As to conditions: 100 nM; FIG. 6. As to the method: The present inventors tested the binding ability of the bispecific antibody of scFv-Cκ-scFv fusion proteins in MOLT-4 cells not expressing mPDGFR-β by flow cytometry analysis. MOLT-4 cells were cultured with a bispecific antibody of scFv-Cκ-scFv fusion protein (100 nM) at 4° C. for 1 hour. After washing as described above, the detection was conducted by treating with an APC-anti human Cκ antibody. The MOLT-4 cells were purchased from the Korea Cell Line Bank and prepared by culturing in RPMI-1640 (Welgene, Seoul, Korea) medium added by 10% fetal bovine serum, 1% penicillin, and streptomycin.
A general note: A flow cytometer gives signals particle by particle.

Experiment [1] deals with neovascularization. The experiment in a line: Oxygen-induced retinal disease animal model. To be noted: complex with cot-duo; 1 uL into the vitreous cavity, 1 nM and 10 nM; FIG. 9. It counts as in vivo, C57BL/6 mice. As to the method: C57BL/6 mice on 7th day after birth were reared in a high-concentration oxygen (75%) chamber for 5 days, and transferred to a normal oxygen breeding facility on 12th day to create an environment for retinopathy of premature baby.
On the 14th day after birth, 1 uL of each bispecific antibody scFv-Cκ-scFv, and the complex of the bispecific antibody scFv-Cκ-scFv fusion protein and cot-duo were injected into the vitreous cavity at a concentration of 1 nM and 10 nM, respectively. To label blood vessels, isolectin B4-594 (1:100; 121413, Invitrogen) was treated on the retinal flat mount.

For experiment [2], the system named is neovascularization. The experiment in a line: Laser-induced choroidal neovascularization animal model. It counts as in vivo, mice. As to conditions: complex with cot-duo; 1 uL into the vitreous cavity, 10 nM; FIG. 10. As to the method: After anesthetizing the mice, the retina of the mouse was irradiated with an indirect ophthalmoscope system (ILOODA) laser in a 300 um spot size with 400 mW intensity, 50 ms duration, and 810 nm wavelength to induce destruction of Bruch's membrane.
After 4 days of laser irradiation, 1 uL of each bispecific antibody scFv-Cκ-scFv, and complex of the bispecific antibody scFv-Cκ-scFv fusion protein and the cot-duo was injected into the vitreous cavity at a concentration of 10 nM. After 7 days of laser irradiation, the eyes were removed to obtain retinal pigment epithelial-choroid-scleral tissue, and immunofluorescence staining was performed with isolectin B4 antibody conjugated to Alexa Fluor 594 to determine the extent of the choroidal neovascular membrane. The neovascularization inhibition ability of the scFv-Cκ-scFv fusion protein and the cot-duo complex was confirmed. To quantitatively analyze the extent of the choroidal neovascular membrane, the ImageJ program (NIH) was used.

B1: PRb-CN01: anti-mPDGFR-β chicken scFv clone (VH SEQ ID NO 7, VL SEQ ID NO 8), tested as scFv-Cκ-anti-cotinine scFv bispecific antibody (antibody, V domains shown)
VH: AVTLDESGGGLQTPGGALSLVCKASGFTFSDRAMHWVRQAPGKGLEWVGLITNTGGSTNYGAAVKGRATISRDNGQSTVRLQLNNLRAEDTGTYYCTRGVGSWAHGGRIDAWGHGTEVIVSS
VL: LTQPSSVSANPGETVKITCSGGSGSYGWFQQKSPGSAPVTVIYSNNQRPSDIPSRFSGSKSGSTNTLTITGVQAEDEAIYYCGTRDSSYVGIFGAGTTLTVL
modifications: VH of PRb-CN01; VL of PRb-CN01
B1: the “binding ability to mPDGFR-β in the presence of mPDGF-BB” value with mPDGFR-β is listed as “not inhibited”. Besides, in the experiment on NIH3T3 cells, the cellular internalization result was “Intracellular fluorescence was detected”. Further, the “binding to MOLT-4 cells” value in the experiment on MOLT-4 cells is recorded as “neither PRb-CN01 nor the anti-HER2 bispecific antibody of scFv-Cκ-scFv fusion antibody binds”. In addition, the inhibition of neovascularization result is “inhibited neovascularization in a concentration-dependent manner” in the experiment with neovascularization [1] and “inhibited neovascularization” in the experiment with neovascularization [2].
